One data set deals with p38 MAPK. Conditions: HK-2 cell, treatment alone; Wang et al., 2014; cited from earlier work.
The subject of the next data set is renalase KO mice. Conditions: Wang et al., 2014; cited from earlier work.
In a further data set the test system is isolated mouse acini. The experiment in a line: Trypsin activity (zymogen activation) in isolated mouse pancreatic acini. It counts as cell-based. Here is the method:
FIGS. 9A-9E, depict the results of experiments that show recombinant exogenous renalase reduce zymogen activation and injury in vitro in mice. (FIG. 9A) Isolated WT mouse acini were pretreated for 30 minutes with recombinant renalase (25 μg/mL; 0.1 μM) and then treated with either (FIG. 9A, 9D, 9E) physiologic (0.1 nM) and supraphysiologic (100 nM) cerulein or (FIG. 9B) physiologic (1 μM) or supraphysiologic (1000 μM) carbachol for 30 minutes. Trypsin activity (FIGS. 9A-9C), MTT accumulation (FIG. 9D), and LDH release (FIG. 9E) were assayed using a fluorogenic substrate. For FIG. 9C, isolated acini from renalase ^−/^− mice were treated pretreated with recombinant renalase (25 μg/mL) and then treated with cerulein (0.1 nM or 100 nM) for 30 minutes. *p<0.05 vs. supraphysiologic cerulein or carbachol, # p<0.05 vs. WT, n=3, +/−SEM.
FIGS. 13A-13C, depict the results of experiments showing caloxin blocks the protective effects of renalase. Isolated WT mouse acini were pretreated for 30 minutes with caloxin 1b (100 μM) and/or recombinant renalase (25 μg/mL) and then treated with supraphysiologic (100 nM) cerulein (CER) and assayed for trypsin activity (FIG. 13A) or MTT conversion (FIG. 13B). *p<0.05 vs. CER, # p<0.05 vs. CER+renalase. WT, n=3, +/−SEM.
Next, it was assessed whether pretreatment with recombinant human renalase reduces injury in pancreatitis. This was first assessed in isolated groups of murine acinar cells (acini) that were exposed to supraphysiologic concentrations of cerulein and carbachol (which induces early acinar cell pancreatitis responses) in isolated WT mouse acini and acini isolated from renalase deficient mice in vitro (FIG. 9). The recombinant renalase reduced trypsinogen activation induced by either cerulein (FIG. 9A) or carbachol (FIG. 9B). […] Renalase had no effect on untreated acini or acini treated with physiologic stimulation.

For a further data set, the system named is WT mice. In words: Cerulein-induced pancreatitis in vivo. More on the design: species or system mouse. Particulars: single IP dose 2 hours after initiating cerulein pancreatitis; sacrificed at hour 7. As for the experimental part:
FIGS. 10A-10G, depict the results of experiments showing that pretreatment with renalase peptide (RP-220) ameliorates cerulein-induced pancreatitis in vivo. WT mice were treated with 6 hourly IP injections of cerulein (CER, 40 mcg/kg). IP renalase peptide, RP-220 (renalase, 1.3 mg/kg) was given 1 hour before first cerulein injection. (FIG. 10A) Pancreatic trypsin activation measured with fluorogenic substrate, normalized to total protein. (FIG. 10B) Edema measured as % wet weight. (FIG. 10C) Apoptosis evaluated by TUNEL positive cells. (FIG. 10D) Neutrophils (Ly-6B) and (FIG. 10E) macrophages (F4/80) were quantified. Pancreas H&E sections (FIG. 10G) were evaluated for edema, pyknotic nucei, and vacuoles to derive morphological score (FIG. 10F). *p<0.05 vs. WT-CER, +/−SEM, n=5.
A single dose of renalase was given intraperitoneally (100 μg peptide/25 g body weight) 2 hours after inducing cerulein-pancreatitis. Six hourly injections IP of 50 μg/kg and animals were sacrificed at hour 7. Histologic pancreatitis severity was evaluated by two blinded reviewers. […] N=4 mice in each group.
To determine whether the protective of renalase observed in isolated acini was relevant in vivo, WT mice were pretreated (1 hour) with a single dose of the renalase peptide (RP-220) intraperitoneally (100 μg peptide/25 g body weight) prior to inducing cerulein-pancreatitis (6 hourly injections IP of 50 μg/kg). […]

“Also recorded” adds a separate entry of the source.

B1: recombinant renalase: recombinant full-length human renalase, secretory flavoprotein oxidase; synthesized as in Desir et al., 2012; SEQ ID NO: 8 or 9 (protein)
chain: ALLRRQTSGPLYLAVWDKAEDSGGRMTTACSPHNPQCTADLGAQYITCTPHYAKKHQRFYDELLAYGVLRPLSSPIEGMVMKEGDCNFVAPQGISSIIKHYLKESGAEVYFRHRVTQINLRDDKWEVSKQTGSPEQFDLIVLTMPVPEILQLQGDITTLISECQRQQLEAVSYSSRYALGLFYEAGTKIDVPWAGQYITSNPCIRFVSIDNKKRNIESSEIGPSLVIHTTVPFGVTYLEHSIEDVQELVFQQLENILPGLPQPIATKCQKWRHSQVTNAAANCPGQMTLHHKPFLACGGDGFTQSNFDGCITSALCVLEALKNYI
Consider B1, for which the p38 phosphorylation result with p38 MAPK is given as “rapidly increased”. Besides, in the data set on renalase KO mice, the “activating MAPK signaling in renalase KO mice” value is on record as “neither renalase nor RP-220 is effective” and the “protecting renalase KO mice against mild or severe ischemic AKI” value is reported as “neither renalase nor RP-220 is effective”. In addition, the “trypsinogen activation induced by cerulein” value with isolated mouse acini (WT mouse acini, renalase 25 μg/mL 30 minutes pretreatment, supraphysiologic (100 nM) cerulein) is listed as “reduced”. The “trypsinogen activation induced by carbachol” value with isolated mouse acini (WT mouse acini, renalase 25 μg/mL 30 minutes pretreatment, supraphysiologic (1000 μM) carbachol) is recorded as “reduced”. Moreover, the “effect on untreated acini” value with isolated mouse acini (no stimulation) is “no effect”. Moreover, the “effect on acini treated with physiologic stimulation” value in the data set with isolated mouse acini (physiologic cerulein (0.1 nM) or carbachol (1 μM)) is “no effect”. In the data set with isolated mouse acini (renalase 25 μg/mL, cerulein 0.1 nM or 100 nM, 30 minutes), the “trypsinogen activation in acini from renalase knockout (KO) mice” value is on record as “reduced”. Also, the “individual and aggregate histologic scores of pancreatitis” value in the data set with WT mice is given as “significantly decreased injury; also recorded: significantly less”.

Source of the values: US11124779B2, “Compositions and methods for treating and preventing pancreatitis, renal injury and cancer” (Yale University, priority 2014, dated 2021).
